In article PMC3448598, “A Role for the CAL1-Partner Modulo in Centromere Integrity and Accurate Chromosome Segregation in Drosophila” (PLoS ONE, 2012):

T1: FLAG-CAL1 (Drosophila, UniProt Q9VEN2 1-979)
T1 construct: Chromosome Alignment 1 (CAL1), Drosophila; The results say the fusion is expressed under the endogenous CAL1 promoter, the methods say under the pCopia promoter; also called FLAG-tagged CAL1; Chromosome Alignment 1; source: Drosophila S2 cells stably expressing FLAG-CAL1, in chromatin-free extract / nuclear (chromatin) extract; not shown: FLAG, N-terminal, kept
T1 sequence (looked up): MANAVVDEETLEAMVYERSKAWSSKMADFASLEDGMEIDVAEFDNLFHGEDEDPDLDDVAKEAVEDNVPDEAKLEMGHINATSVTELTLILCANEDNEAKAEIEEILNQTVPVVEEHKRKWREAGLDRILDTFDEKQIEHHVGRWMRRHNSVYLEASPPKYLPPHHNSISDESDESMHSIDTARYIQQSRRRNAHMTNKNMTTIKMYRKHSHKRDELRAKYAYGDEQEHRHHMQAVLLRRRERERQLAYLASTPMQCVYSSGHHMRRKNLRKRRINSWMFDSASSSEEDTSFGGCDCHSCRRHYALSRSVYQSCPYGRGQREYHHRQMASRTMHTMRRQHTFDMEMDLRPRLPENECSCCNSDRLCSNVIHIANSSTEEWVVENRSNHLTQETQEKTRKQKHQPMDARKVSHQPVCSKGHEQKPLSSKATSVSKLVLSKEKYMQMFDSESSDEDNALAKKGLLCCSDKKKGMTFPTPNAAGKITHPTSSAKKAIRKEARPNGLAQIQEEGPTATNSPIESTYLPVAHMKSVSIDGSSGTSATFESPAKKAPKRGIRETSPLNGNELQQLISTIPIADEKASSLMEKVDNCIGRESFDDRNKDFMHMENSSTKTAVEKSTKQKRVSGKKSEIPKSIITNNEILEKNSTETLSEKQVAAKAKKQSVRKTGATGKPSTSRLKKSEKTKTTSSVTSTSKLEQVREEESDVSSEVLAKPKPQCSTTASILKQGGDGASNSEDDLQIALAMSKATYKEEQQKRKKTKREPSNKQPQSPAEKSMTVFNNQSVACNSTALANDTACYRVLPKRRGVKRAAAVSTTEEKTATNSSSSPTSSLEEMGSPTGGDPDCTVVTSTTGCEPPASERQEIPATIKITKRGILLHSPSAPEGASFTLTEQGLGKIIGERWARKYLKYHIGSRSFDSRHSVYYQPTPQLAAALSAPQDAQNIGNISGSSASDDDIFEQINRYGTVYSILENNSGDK

B1: Modulo (natural protein, Drosophila (endogenous in S2 cells), UniProt P13469 1-542, looked up)
chain: MAQKKAVTVKGKKATNGEEKPLAKRVTKSTKVQEEETVVPQSPSKKSRKQPVKEVPQFSEEDESDVEEQNDEQPGDDSDFETEEAAGLIDDEAEEDEEYNSDDEEDDDDDELEPGEVSKSEGADEVDESDDDEEAPVEKPVSKKSEKANSEKSEENRGIPKVKVGKIPLGTPKNQIVFVTNLPNEYLHKDLVALFAKFGRLSALQRFTNLNGNKSVLIAFDTSTGAEAVLQAKPKALTLGDNVLSVSQPRNKEENNERTVVVGLIGPNITKDDLKTFFEKVAPVEAVTISSNRLMPRAFVRLASVDDIPKALKLHSTELFSRFITVRRISQESISRTSELTLVVENVGKHESYSSDALEKIFKKFGDVEEIDVVCSKAVLAFVTFKQSDAATKALAQLDGKTVNKFEWKLHRFERSTSGRAILVTNLTSDATEADLRKVFNDSGEIESIIMLGQKAVVKFKDDEGFCKSFLANESIVNNAPIFIEPNSLLKHRLLKKRLAIGQTRAPRKFQKDTKPNFGKKPFNKRPAQENGGKSFVKRARF
notes: Modulo, Drosophila nucleolar protein, endogenous in S2 cells; runs as a 75 KDa protein; also called nucleolar protein Modulo; Drosophila nucleolin homolog; source: endogenous, Drosophila S2 cells, in chromatin-free extract / nuclear (chromatin) extract
B2: CAL1 (natural protein, Drosophila (endogenous in S2 cells), UniProt Q9VEN2 1-979, looked up)
chain: T1 sequence (looked up)
notes: Chromosome Alignment 1 (CAL1), Drosophila, endogenous in untransfected S2 cells; runs approximately as a 150 KDa protein; also called Chromosome Alignment 1; source: endogenous, Drosophila S2 cells, in nuclear (chromatin) extract

Experiments:
[1] = biological target: T1, FLAG-CAL1; test: co-IP; anti-FLAG M2 agarose, 2 h at 4°C, extracts of nuclei from S2 cells stably expressing FLAG-CAL1 and from untagged S2 cells; Western blot with anti-Modulo; quantified with Image J; details: partners not purified
[2] = biological target: B1; test: co-IP; anti-Modulo antibody coupled to Dynabead Protein-A, 2 h at 4°C, extracts of nuclei from S2 cells; mock IP without antibody; Western blot with anti-CAL1; details: partners not purified

fold enrichment in the FLAG-CAL1 IP over the IP from untagged S2 cells [1] [fold]	fold enrichment in the anti-Modulo IP over the mock IP [2] [fold]	Binder
5		B1
	8	B2
